This is an account of results in patent publication US20230193513A1.

In this experiment the target is glucagon-like peptide-1 receptor (GLP1R) (Homo sapiens (Human)) (UniProt P43220). Briefly: cell-based or functional assay.
Chain of glucagon-like peptide-1 receptor (GLP1R) (Homo sapiens (Human)) (P43220 24-463): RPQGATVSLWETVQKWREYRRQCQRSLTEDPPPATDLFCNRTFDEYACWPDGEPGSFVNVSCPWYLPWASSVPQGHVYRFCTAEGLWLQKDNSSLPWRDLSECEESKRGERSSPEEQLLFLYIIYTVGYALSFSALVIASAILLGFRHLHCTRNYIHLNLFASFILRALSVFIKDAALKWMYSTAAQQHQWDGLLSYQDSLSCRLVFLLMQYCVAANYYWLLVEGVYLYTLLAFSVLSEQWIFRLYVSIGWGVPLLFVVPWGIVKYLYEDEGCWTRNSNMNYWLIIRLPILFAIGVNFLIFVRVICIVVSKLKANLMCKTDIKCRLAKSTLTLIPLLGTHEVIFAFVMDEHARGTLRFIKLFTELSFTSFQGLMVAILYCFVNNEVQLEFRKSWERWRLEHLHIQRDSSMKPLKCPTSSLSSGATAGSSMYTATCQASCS

B1: GLP1R-3 (antibody, from a related filing, V domains shown, part only)
VH: QVQLVESGGGVVQPGRSLRLSCAASGFTFSSYGMHWVRQAPGKGLEWVSFISYDESNKYYADSVKGRFTISRDNSKNTLYLQMNSLRAEDTAVYYCAKHMSMQEGAVTGEGQAAKEFIAWLVKGRVRADLVGDAFDVWGQGTLVTVSS
VL: QSVLTQPPSVSAAPGQKVTISCSGSSSNIADNYVSWYQQLPGTAPKLLIYDNNKRPSGIPDRFSGSKSGTSATLGITGLQTGDEADYYCGTWDNYLGAGVFGGGTKLTVLG
Take B1: the EC50 (nM) of Exendin-4 induced cAMP activity with the antibody is 0.63 nM, the EC50 (nM) of GLP1 (7-36)-induced signaling with GLP1R IgG (+100 nM) came out at 1.31 nM, the fold difference of the EC50 against no antibody stood at 2.2 fold and the fold-diff of the Exendin-4 EC50 against Exendin-4 alone was 5.4 fold.

B2: GLP1R-59-241 (antibody, part only; not given: light chain, part only)
heavy: QVQLVQSGAEVKKPGSSVKVSCKASGGTFSDYAISWVRQAPGQGLEWMGGIIPIFGTTNYAQKFQGRVTITADESTSTAYMELSSLRSEDTAVYYCAKHMSMQGSVAGGTFTSDVSSYLEGQAAKEFIAWLVKGGPSFIRADLVGDAFDVWGQGTLVTVSSASASTKGPSVFPLAPCSRSTSESTAALGCLVKDYFPEPVTVSWNSGALTSGVHTFPAVLQSSGLYSLSSVVTVPSSNFGTQTYTCNVDHKPSNTKVDKTVERKCCVECPPCPAPPVAGPSVFLFPPKPKDTLMISRTPEVTCVVVDVSHEDPEVQFNWYVDGVEVHNAKTKPREEQFNSTFRVVSVLTVVHQDWLNGKEYKCKVSNKGLPAPIEKTISKTKGQPREPQVYTLPPSREEMTKNQVSLTCLVKGFYPSDIAVEWESNGQPENNYKTTPPMLDSDGSFFLYSKLTVDKSRWQQGNVFSCSVMHEALHNHYTQKSLSLSPG
Take B2: the EC50 (nM) of the IgG as agonist, functional assay on GLP-1R overexpressing cells is 0.722 nM.

B3: GLP1R-59-243 (antibody, part only; not given: light chain, part only)
heavy: QVQLVQSGAEVKKPGSSVKVSCKASGGTFSTYGINWVRQAPGQGLEWMGGIIPIFGTANYAQKFQGRVTITADESTSTAYMELSSLRSEDTAVYYCARANQHFFGKGDNLAARDFINWLIQTKITDGSNPGYHYYGMDVWGQGTLVTVSSASASTKGPSVFPLAPCSRSTSESTAALGCLVKDYFPEPVTVSWNSGALTSGVHTFPAVLQSSGLYSLSSVVTVPSSNFGTQTYTCNVDHKPSNTKVDKTVERKCCVECPPCPAPPVAGPSVFLFPPKPKDTLMISRTPEVTCVVVDVSHEDPEVQFNWYVDGVEVHNAKTKPREEQFNSTFRVVSVLTVVHQDWLNGKEYKCKVSNKGLPAPIEKTISKTKGQPREPQVYTLPPSREEMTKNQVSLTCLVKGFYPSDIAVEWESNGQPENNYKTTPPMLDSDGSFFLYSKLTVDKSRWQQGNVFSCSVMHEALHNHYTQKSLSLSPG
Turning to B3, the EC50 (nM) of the IgG as agonist, functional assay on GLP-1R overexpressing cells turned out to be 0.821 nM.
